Test results taken from patent publication US5441884.

System: T1, Tn5401 TnpA transposase (Bacillus thuringiensis var. morrisoni EG2158)
T1 sequence: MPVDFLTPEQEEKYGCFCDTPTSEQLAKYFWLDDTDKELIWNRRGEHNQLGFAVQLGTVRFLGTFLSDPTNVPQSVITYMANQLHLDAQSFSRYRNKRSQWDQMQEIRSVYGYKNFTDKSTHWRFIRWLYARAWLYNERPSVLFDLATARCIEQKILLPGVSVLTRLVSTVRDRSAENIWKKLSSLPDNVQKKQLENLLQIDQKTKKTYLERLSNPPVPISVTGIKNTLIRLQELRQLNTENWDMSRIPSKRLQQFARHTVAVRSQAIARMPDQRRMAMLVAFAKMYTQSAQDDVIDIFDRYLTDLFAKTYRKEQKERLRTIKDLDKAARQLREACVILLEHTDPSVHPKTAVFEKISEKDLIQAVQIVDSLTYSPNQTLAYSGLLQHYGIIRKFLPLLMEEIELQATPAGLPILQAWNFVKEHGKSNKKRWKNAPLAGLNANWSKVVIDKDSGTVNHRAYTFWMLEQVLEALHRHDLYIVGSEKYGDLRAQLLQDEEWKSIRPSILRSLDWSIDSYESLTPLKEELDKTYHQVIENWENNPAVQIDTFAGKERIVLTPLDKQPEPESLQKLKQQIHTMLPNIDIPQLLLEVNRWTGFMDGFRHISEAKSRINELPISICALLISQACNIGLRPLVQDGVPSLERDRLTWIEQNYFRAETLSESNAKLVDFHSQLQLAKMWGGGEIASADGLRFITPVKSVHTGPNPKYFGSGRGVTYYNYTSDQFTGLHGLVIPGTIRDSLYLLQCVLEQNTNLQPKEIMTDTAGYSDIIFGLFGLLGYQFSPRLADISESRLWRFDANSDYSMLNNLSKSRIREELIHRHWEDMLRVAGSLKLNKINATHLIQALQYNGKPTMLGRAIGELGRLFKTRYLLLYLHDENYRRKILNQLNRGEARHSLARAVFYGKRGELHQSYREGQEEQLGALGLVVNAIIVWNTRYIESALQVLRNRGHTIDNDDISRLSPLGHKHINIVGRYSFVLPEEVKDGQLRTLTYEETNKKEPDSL
Assay: cell_activity
Conditions: pEG922 in plasmid-free B.t. EG7566; 10^-1 to 10^-2 in a plasmid-containing strain; functional transposition, binding not measured directly

## Tn5401 transposon with 53 bp terminal inverted repeats
  activity (transposition frequency): 0.0001
